Experimental data as given in US11008403 (dated 2021).

Tests used:
[1] = target: T1, cyno TfR ECD (cynomolgus); test: SPR
T1 chain: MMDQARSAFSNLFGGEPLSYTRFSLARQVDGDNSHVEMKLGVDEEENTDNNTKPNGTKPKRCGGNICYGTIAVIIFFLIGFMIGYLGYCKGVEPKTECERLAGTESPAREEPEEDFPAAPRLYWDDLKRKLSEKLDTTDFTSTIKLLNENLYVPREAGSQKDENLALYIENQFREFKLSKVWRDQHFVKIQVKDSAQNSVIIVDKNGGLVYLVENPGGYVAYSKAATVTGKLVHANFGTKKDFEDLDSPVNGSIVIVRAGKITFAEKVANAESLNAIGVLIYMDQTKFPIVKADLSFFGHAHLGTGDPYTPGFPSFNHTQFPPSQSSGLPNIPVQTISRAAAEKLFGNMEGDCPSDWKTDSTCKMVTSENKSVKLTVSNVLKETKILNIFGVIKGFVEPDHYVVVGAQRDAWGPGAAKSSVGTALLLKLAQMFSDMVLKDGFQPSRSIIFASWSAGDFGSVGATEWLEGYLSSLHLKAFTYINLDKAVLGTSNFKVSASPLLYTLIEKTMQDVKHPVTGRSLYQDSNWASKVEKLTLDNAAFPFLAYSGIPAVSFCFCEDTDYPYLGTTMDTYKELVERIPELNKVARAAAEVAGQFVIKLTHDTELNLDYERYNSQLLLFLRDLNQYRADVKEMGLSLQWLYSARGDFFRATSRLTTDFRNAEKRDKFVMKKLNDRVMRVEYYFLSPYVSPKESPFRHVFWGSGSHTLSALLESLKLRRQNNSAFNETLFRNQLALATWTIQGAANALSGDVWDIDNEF

[2] = target: human TfR ECD (human); test: SPR

- Kd [1]: 23.7 nM
- Kd [2]: 9 nM
B1: Anti-TfR1/6266.hIgG1.N297G, TfR arm (antibody, V domains shown)
VH: EVQLVQSGAEVKKPGASVKVSCKASGYTFTSYWMHWVRQAPGQRLEWIGEINPTNGRTNYIEKFKSRATLTVDKSASTAYMELSSLRSEDTAVYYCARGTRAYHYWGQGTMVTVSS
VL: DIQMTQSPSSLSASVGDRVTITCRASDNLYSNLAWYQQKPGKSPKLLVYDATNLADGVPSRFSGSGSGTDYTLTISSLQPEDFATYYCQHFWGTPLTFGQGTKVEIK
